From article PMC11452509 come the findings set out here.

Common to all, as to test: SPR
Background: SPR reads the build-up and loss of mass on a sensor chip optically.

The target in assay [1] is trastuzumab produced in CHO-gmt9 cells (human (detected with anti human IgG (H + L))).
Assay [2] concerns the target trastuzumab produced in CHO-K1 cells (human (detected with anti human IgG (H + L))).
Assay [3] has as its target trastuzumab produced in CHO-gmt21 cells (human (detected with anti human IgG (H + L))).
Assay [4] concerns the target trastuzumab produced in CHO-gmt8 cells (human (detected with anti human IgG (H + L))).
Assay [5] concerns the target trastuzumab produced in CHO-gmt13 cells (human (detected with anti human IgG (H + L))).

As a reminder, the Kd is the equilibrium constant for the complex coming apart. As to “extracellular domain of human FcγRIIIa with a His-tag (from UniProt P08637 17-208) (receptor)”, the Kd in assay [1] worked out at 80 nM; in assay [2], 560 nM; in assay [3] it was 799 nM; in assay [4], 200 nM; in assay [5], 780 nM.
